Reference: publication PMC9302186, “Defining variant-resistant epitopes targeted by SARS-CoV-2 antibodies: A global consortium study” (Science (New York, N.y.), 2021)

Molecular target: T1, SARS-CoV-2 spike trimer (as imaged by NS-EM) (SARS-CoV-2, ancestral (Wuhan-Hu-1, …, UniProt P0DTC2))
T1 construct: also called spike trimers; spike protein
Experiment: negative-stain electron microscopy
Settings: both partners purified

B1: CoVIC-259 (antibody, V domains shown)
VH: EVQLVESGGGVVQPGRSLRLSCAASGFTFSSYAMHWVRQAPGKGLEWVAVLSYDGSNKYNADSVKGRFTISRDNSKNTLYLQMNSLRVEDTAMYYCARDGVSVTMVRGVIGPLCDYWGQGTLVTVSS
VL: not shown
notes: also called RBD-1 community representative
- binding result: binds
